What is called Kd is the equilibrium constant for the complex coming apart. The low end stands for tighter binding, the high end for weaker binding.

For test [1], the target named is CSPG (bovine) (D8428, Sigma) (bovine) (UniProt P21793). The experiment in a line: quartz crystal microbalance (Attana A100), CSPG coated; FCR3 Baculo.
Test [2] shares this target. The experiment in a line: quartz crystal microbalance (Attana A100), CSPG coated; 3D7 Baculo.
Test [3] has as its target T1, CSPG (bovine) (D8428, Sigma) (bovine, UniProt P21793 31-360, carries chondroitin sulfate A (CSA) glycosaminoglycan chain(s); attachment site not stated).
T1 construct: Commercial proteoglycan coated on the chip or plate; also called chondroitin sulfate proteoglycan; CSA proteoglycan (CSPG)
The test is described as above.

The target in test [4] is T1, CSPG (bovine) (D8428, Sigma). Kind of test: quartz crystal microbalance (Attana A100), CSPG coated.
Protocol: All buffers and reagents were filtered to 0.2 μm. The ligand was CSPG (Bovine) (D8428, Sigma) or HSPG (H4777, Sigma), coated at a concentration of 100 μg/ml. Coating was done in steady state by adding ligand solution and incubation 30 minutes at room temperature. This was followed by blocking the plate with PBS containing 0.1% Ig-free BSA (BSA-50, Rockland), 30 minutes at room temperature. The Attana A100 was washed with 1% SDS prior to every experiment, using the manufacturers predefined daily wash program. Following the wash, the running buffer was switched to PBS at a flow rate of 25 μL/min, at 25° C., and the machine was allowed to stabilize at a maximum change in frequency of 0.5 Hz/min. […] Prior to sample injection PBS was injected as a blank. Analyte was injected in a 1:3 dilution series (0.25 μg/ml-60 μg/ml) starting with the lowest concentration. Association time was set to 84 seconds and disassociation time to 5 minutes. […] The data collected was processed in the Attester Evaluation software (Attana AB). Curves were fitted in a simple 1:1 model. kₒₙ and koff were determined by curve fitting and KD was calculated based KD=koff/kₒₙ.

T1 sequence (P21793 31-360): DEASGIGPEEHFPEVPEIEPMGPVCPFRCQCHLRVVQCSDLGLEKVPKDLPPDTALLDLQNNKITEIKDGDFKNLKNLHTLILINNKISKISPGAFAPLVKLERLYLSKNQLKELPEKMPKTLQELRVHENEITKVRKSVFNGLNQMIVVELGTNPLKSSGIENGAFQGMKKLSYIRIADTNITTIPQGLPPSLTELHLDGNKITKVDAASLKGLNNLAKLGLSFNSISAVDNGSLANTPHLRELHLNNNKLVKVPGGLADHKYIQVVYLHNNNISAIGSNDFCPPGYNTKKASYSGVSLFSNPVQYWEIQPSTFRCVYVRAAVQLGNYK
Chain of CSPG (bovine) (D8428, Sigma) (bovine) (P21793 31-360): as above

Consider VAR2CSA ID1-DBL4ε, FCR3 (Baculo), for which, in test [1], the equilibrium dissociation constant (Kd) amounted to 8.6 nM.
VAR2CSA DBL1-ID2b, FCR3 (Baculo) showed a Kd in test [1] of 1.5 nM. Compared with the last molecule, the Kd is about 5.7-fold lower.
For VAR2CSA FV2, 3D7 (Baculo), the dissociation constant (Kd) in test [2] came out at 8.2 nM.
Turning to VAR2CSA FV2, FCR3 (Baculo), the dissociation constant (Kd) in test [1] was determined as 5.2 nM.
For the molecule VAR2CSA ID1-DBL3ε, FCR3 (Baculo), the dissociation constant (Kd) in test [1] is 0.3 nM.
With VAR2CSA DBL2X-DBL4ε, FCR3 (Baculo), the Kd in test [1] was 2.4 nM.

B1: VAR2CSA ID1-DBL2Xb, 3D7 (Baculo) (other)
chain: NYIKGDPYFAEYATKLSFILNSSDANNPSEKIQKNNDEVCNCNESGIASVEQEQISDPSSNKTCITHSSIKANKKKVCKHVKLGVRENDKDLRVCVIEHTSLSGVENCCCQDFLRILQENCSDNKSGSSSNGSCNNKNQEACEKNLEKVLASLTNCYKCDKCKSEQSKKNNKNWIWKKSSGKEGGLQKEYANTIGLPPRTQSLCLVVCLDEKGKKTQELKNIRTNSELLKEWIIAAFHEGKNLKPSHEKKNDDNGKKLCKALEYSFADYGDLIKGTSIWDNEYTKDLELNLQKIFGKLFRKYIKKNNTAEQDTSYSSLDELRESWWNTNKKYIWLAMKHGAGMNSTTCCGDGSVTGSGSSCDDIPTIDLIPQYLRFLQEWVEHFCKQRQEKVKPVIENCKSCKESGGTCNGECKTECKNKCEVYKKFIEDCKGGDGTAGSSWVKRWDQIYKRYSKYIEDAKRNRKAGTKNCGPSSTTNAAENKCVQSDIDSFFKHLIDIGLTTPSSYLSIVLDDNICGADKAPWTTYTTYTTTEKCNKETDKSKLQQCNTAVVVNVPSPLGNTPHGYKY
notes: The 3D7 forward primer begins at LSFILN; not shown: C-terminal V5 and His tag of the modified pAcGP67-A vector
B1 displayed a Kd in test [3] of 21.8 nM.

B2: VAR2CSA ID1-ID2a, 3D7 (Baculo) (other)
chain: NYIKGDPYFAEYATKLSFILNSSDANNPSEKIQKNNDEVCNCNESGIASVEQEQISDPSSNKTCITHSSIKANKKKVCKHVKLGVRENDKDLRVCVIEHTSLSGVENCCCQDFLRILQENCSDNKSGSSSNGSCNNKNQEACEKNLEKVLASLTNCYKCDKCKSEQSKKNNKNWIWKKSSGKEGGLQKEYANTIGLPPRTQSLCLVVCLDEKGKKTQELKNIRTNSELLKEWIIAAFHEGKNLKPSHEKKNDDNGKKLCKALEYSFADYGDLIKGTSIWDNEYTKDLELNLQKIFGKLFRKYIKKNNTAEQDTSYSSLDELRESWWNTNKKYIWLAMKHGAGMNSTTCCGDGSVTGSGSSCDDIPTIDLIPQYLRFLQEWVEHFCKQRQEKVKPVIENCKSCKESGGTCNGECKTECKNKCEVYKKFIEDCKGGDGTAGSSWVKRWDQIYKRYSKYIEDAKRNRKAGTKNCGPSSTTNAAENKCVQSDIDSFFKHLIDIGLTTPSSYLSIVLDDNICGADKAPWTTYTTYTTTEKCNKETDKSKLQQCNTAVVVNVPSPLGNTPHGYKYACQCKIPTNEETCDDRKEYMNQWSCGSARTMKRGYKNDNYELCKYNGVDVKPTTVRSNSSKLD
notes: not shown: C-terminal V5 and His tag of the modified pAcGP67-A vector
The molecule B2 had a dissociation constant (Kd) in test [3] of 5.7 nM.

B3: VAR2CSA ID1-DBL2Xa, 3D7 (Baculo) (other)
chain: LSFILNSSDANNPSEKIQKNNDEVCNCNESGIASVEQEQISDPSSNKTCITHSSIKANKKKVCKHVKLGVRENDKDLRVCVIEHTSLSGVENCCCQDFLRILQENCSDNKSGSSSNGSCNNKNQEACEKNLEKVLASLTNCYKCDKCKSEQSKKNNKNWIWKKSSGKEGGLQKEYANTIGLPPRTQSLCLVVCLDEKGKKTQELKNIRTNSELLKEWIIAAFHEGKNLKPSHEKKNDDNGKKLCKALEYSFADYGDLIKGTSIWDNEYTKDLELNLQKIFGKLFRKYIKKNNTAEQDTSYSSLDELRESWWNTNKKYIWLAMKHGAGMNSTTCCGDGSVTGSGSSCDDIPTIDLIPQYLRFLQEWVEHFCKQRQEKVKPVIENCKSCKESGGTCNGECKTECKNKCEVYKKFIEDCKGGDGTAGSSWVKRWDQIYKRYSKYIEDAKRNRKAGTKNCGPSSTTNAA
notes: as for B2
For the molecule B3, the binding result in test [4] is given as “no binding (tested: 0.25 µg/ml-60 µg/ml)”.
